From patent publication US20130115677
Numbering of substitutions follows the chain as printed.

Assays:
Test in all cases: cleavage_in_vitro
[1] = target: T1, PvuII-HF T46G (Proteus vulgaris) (UniProt P23657); conditions: NEB4, 37 C, Mg2+
T1 sequence: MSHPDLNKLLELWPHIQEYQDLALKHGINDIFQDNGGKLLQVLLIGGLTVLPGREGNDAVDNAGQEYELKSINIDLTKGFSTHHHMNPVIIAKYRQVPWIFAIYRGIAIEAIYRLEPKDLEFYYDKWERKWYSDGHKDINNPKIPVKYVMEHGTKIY

[2] = test system: T2, BspQI-HF K279P/R388F (Bacillus sphaericus); conditions: NEB4, 50 C, Mg2+
T2 sequence: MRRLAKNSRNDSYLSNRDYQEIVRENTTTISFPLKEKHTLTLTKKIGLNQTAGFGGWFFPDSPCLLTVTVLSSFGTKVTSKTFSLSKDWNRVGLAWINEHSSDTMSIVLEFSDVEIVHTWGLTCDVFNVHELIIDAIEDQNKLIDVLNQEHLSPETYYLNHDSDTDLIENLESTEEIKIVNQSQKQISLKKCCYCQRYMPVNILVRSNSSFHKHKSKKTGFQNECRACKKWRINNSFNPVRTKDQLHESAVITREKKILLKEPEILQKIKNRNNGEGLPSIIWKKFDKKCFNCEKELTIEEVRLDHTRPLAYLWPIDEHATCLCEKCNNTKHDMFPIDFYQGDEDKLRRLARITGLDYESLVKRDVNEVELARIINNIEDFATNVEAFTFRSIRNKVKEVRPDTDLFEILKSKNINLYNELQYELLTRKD

[3] = test system: T3, AvrII (Anabaena variabilis); conditions: NEB4, 37 C, Mg2+
T3 sequence: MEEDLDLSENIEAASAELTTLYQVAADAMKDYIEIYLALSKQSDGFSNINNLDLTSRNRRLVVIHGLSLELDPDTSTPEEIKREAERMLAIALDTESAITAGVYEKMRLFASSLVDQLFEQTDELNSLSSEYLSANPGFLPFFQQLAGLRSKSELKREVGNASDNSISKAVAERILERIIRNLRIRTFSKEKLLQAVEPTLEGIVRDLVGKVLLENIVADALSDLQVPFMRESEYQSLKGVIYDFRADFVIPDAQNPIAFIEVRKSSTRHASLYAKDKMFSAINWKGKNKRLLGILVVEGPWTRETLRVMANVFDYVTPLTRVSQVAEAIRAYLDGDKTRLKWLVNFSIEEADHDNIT

[4] = test system: T4, AvrII-HF Y104F (Anabaena variabilis); conditions: NEB4, 37 C, Mg2+
T4 sequence: T3 sequence with Y104F

[5] = target: T5, SalI (Streptomyces albus G) (UniProt Q53608); conditions: NEB4, 37 C, Mg2+
T5 sequence: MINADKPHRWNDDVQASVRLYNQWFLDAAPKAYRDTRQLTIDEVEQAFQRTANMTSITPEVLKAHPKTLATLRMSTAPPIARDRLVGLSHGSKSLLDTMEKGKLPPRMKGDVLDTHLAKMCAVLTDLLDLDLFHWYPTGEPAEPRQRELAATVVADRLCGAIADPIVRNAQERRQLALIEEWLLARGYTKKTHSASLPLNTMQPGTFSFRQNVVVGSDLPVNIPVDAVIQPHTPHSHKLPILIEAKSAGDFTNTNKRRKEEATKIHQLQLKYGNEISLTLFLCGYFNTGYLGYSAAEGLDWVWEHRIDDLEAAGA

[6] = target: T6, SalI-HF R107A (Streptomyces albus G) (UniProt Q53608); conditions: NEB4, 37 C, Mg2+
T6 sequence: T5 sequence with R107A

pBR322
activity (fidelity index) [1]: 500

pUC19
activity (fidelity index) [2]: > 4000

T7 DNA
activity (fidelity index) [3]: 32 | activity (fidelity index) [4]: > 1000

lambda DNA HindIII digest
activity (fidelity index) [5]: 1 | activity (fidelity index) [6]: > 32000
